Source: the supplement of paper PMC7125110
± gives the standard error. Variants at the floor of the assay were thinned out.

B1: glmS ribozyme (parent)
chain: AUAAAAGCGCCAGAACUACAGAAAUGUAGUUGACGAGGAGGAGGUUUAUCGAAUUUUCGGCGGAUGCCUCCAAA

Experiments:
Details in all cases: with glucosamine-6-phosphate
glucosamine-6-phosphate [1] = variants of: B1; assay: self-cleavage kobs at 40 uM GlcN6P; higher = faster cleavage; RNA array
How it was run: (§1)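 Sequenced MiSeq chips were the platform: E. coli RNA polymerase transcribed barcoded ribozyme variants on them in situ, and a hybridised Cy3 probe tracked these at 37 °C. After glucosamine-6-phosphate (40 μM to 10 mM) in HEPES/KCl/Mg(OAc)2 buffer was flowed in, tiles were imaged over ~14 h. Signals normalised to baseline and to non-cleaving reference variants were reduced to per-tile medians and fit to one- or two-exponential decays to obtain kobs. kcat and KM were derived through weighted Michaelis–Menten fits across concentrations.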

glucosamine-6-phosphate [2] = variants of: B1; assay: self-cleavage kobs at 10000 uM GlcN6P; higher = faster cleavage; RNA array
How it was run: as §1

glucosamine-6-phosphate [3] = variants of: B1; assay: self-cleavage kobs at 160 uM GlcN6P; higher = faster cleavage; RNA array
How it was run: as §1

glucosamine-6-phosphate [4] = variants of: B1; assay: self-cleavage kobs at 640 uM GlcN6P; higher = faster cleavage; RNA array
How it was run: as §1

glucosamine-6-phosphate [5] = variants of: B1; assay: self-cleavage kobs at 2500 uM GlcN6P; higher = faster cleavage; RNA array
How it was run: as §1

Variant | self-cleavage kobs at 40 uM GlcN6P (glucosamine-6-phosphate [1]) | self-cleavage kobs at 10000 uM GlcN6P (glucosamine-6-phosphate [2]) | self-cleavage kobs at 160 uM GlcN6P (glucosamine-6-phosphate [3]) | self-cleavage kobs at 640 uM GlcN6P (glucosamine-6-phosphate [4]) | self-cleavage kobs at 2500 uM GlcN6P (glucosamine-6-phosphate [5])
AUAAAAGCGCCAGAACUACAGAAAUGUAGUUGAGGAGGAGUAGGUUUAUCGAAUUUUUGGCGGAUGCCUCCAAA [C34G G41U C58U] | < 1e-05 s⁻¹ | < 1e-05 s⁻¹ | – | – | –
AUAAAAGCGCCUGAACUACAGAAAUGUAGUUGACGAGGAGGAGGUUUAUCGAAUUAUCGGCGGAUGCCUCCAAA [A12U U56A] | 0.00122 ± 0.00016 s⁻¹ | 0.0626 ± 0.016 s⁻¹ | 0.0024 ± 0.00059 s⁻¹ | 0.0157 ± 0.0027 s⁻¹ | 0.04 ± 0.012 s⁻¹
AUAAAAGCGCCAGAACUACAGAAAUGUAGUUGACGAGUAGGAGGUUUAUCGAGUUUUCGGCGGAUGCCUCCAAA [G38U A53G] | < 1e-05 s⁻¹ | – | < 1e-05 s⁻¹ | < 1e-05 s⁻¹ | –
AUAAAAGCGCCAGAACUACAGAAAUGUAGUUGACUAGGAGGAGCUUUAUCGAAUUCUCGGCGGAUGCCUCCAAA [G35U G44C U56C] | < 1e-05 s⁻¹ | – | – | – | –
AUAAAAGCGCCAGAACUACAGAAAUGUAGUUGACGAGGAGGAGGUUUAUCGGAUUUGCGGCGGAUGCCUCCAAA [A52G U57G] | 5.61e-05 ± 1.6e-05 s⁻¹ | 0.00397 ± 0.00056 s⁻¹ | 0.000188 ± 6.1e-05 s⁻¹ | 0.000523 ± 0.00014 s⁻¹ | 0.00103 ± 0.00019 s⁻¹
AUAAAAGCGCCAGAACUACAGAAAUGUAGUUGACGAGGAGUAGGUUUACCGAAUUUUCGGGGGAUGCCUCCAAA [G41U U49C C61G] | < 1e-05 s⁻¹ | < 1e-05 s⁻¹ | – | – | –
AUAAAAGCGCCAGAACUACAGAAAUGUAGUUGACGAUGAGGAGGUUUAUCGAAUUUUCGGCAGAUGCCUCCAAA [G37U G62A] | < 1e-05 s⁻¹ | – | < 1e-05 s⁻¹ | – | –
AUAAAGGCGCAAGAACUACAGAAAUGUAGUUGACGAGGAGGAGGUUUAUGGAAUUUUUGGCGGAUGCCUCCAAA [A6G C11A C50G C58U] | 0.000139 ± 2.5e-05 s⁻¹ | – | – | – | –
AUAAAAGCGCCUGAACUACAGAAAUGUAGUGGGCGAGGAGGAGGUUUAUUGAAUUUUCGGCGGAUGCCUCCAAA [A12U U31G A33G C50U] | < 1e-05 s⁻¹ | – | – | – | –
AUAAAAGCGCCAGAACUACAGAAAUGUAAUUGACGAGGAGGAGGUUUAUCAAAUUUUCGGCGGAUGCCUCCAAA [G29A G51A] | < 1e-05 s⁻¹ | < 1e-05 s⁻¹ | – | – | –
AUAAAAGCGCCAGAACUACAGAAAUGUAGUUGACGGGGAGGAGCUUUAUCGAAUUUUCGGCGGCUGUCUCCAAA [A36G G44C A64C C67U] | < 1e-05 s⁻¹ | – | – | – | –
AUAAAAGCGCCAGAACUACAGAAAUGUAGUUGACGAGGAGGAGGUUUAUCGAAGUUUCGGCGCAUGCCUCCAAA [U54G G63C] | < 1e-05 s⁻¹ | < 1e-05 s⁻¹ | – | < 1e-05 s⁻¹ | < 1e-05 s⁻¹
AUAAAAGCGACAGAACUACAGAAAUGUAGUUGACGAGGAGGAGGUUUAUCGAAUUUCCGGCGGAUGCCUCCAAA [C10A U57C] | < 1e-05 s⁻¹ | – | < 1e-05 s⁻¹ | – | –
AUAAAAGCUCCAGAACUACAGAAAUGUAGUUGAUGAGGAGGAGGUUUAUCGAAUUUUCGGCGGAUGCCUCCAAA [G9U C34U] | < 1e-05 s⁻¹ | < 1e-05 s⁻¹ | – | < 1e-05 s⁻¹ | < 1e-05 s⁻¹
AUAAAAGCGCCAGAACUACAGAAAUGUAGUUGAUGAGGAGGAGGUUUAUCGAAUGUUCGGCGGAUGCCUCCAAA [C34U U55G] | < 1e-05 s⁻¹ | – | < 1e-05 s⁻¹ | < 1e-05 s⁻¹ | –
AUAAAAGCGCCAGAACUACAGAAAUGUAGUUGACGAGGAGGAGGUUCAACGAAGUUUCGGCGGAUGCAUCCAAA [U47C U49A U54G C68A] | < 1e-05 s⁻¹ | < 1e-05 s⁻¹ | – | – | –
AUAAAAGCGCCAGAAUUACAGAAAUGUAGUUGACGAGGAGGAGUUUUAUCGAAUUUACGGCGGAUGCAUCCAAA [C16U G44U U57A C68A] | < 1e-05 s⁻¹ | < 1e-05 s⁻¹ | < 1e-05 s⁻¹ | < 1e-05 s⁻¹ | < 1e-05 s⁻¹
AUAAAAGCGCCAGAACUACAGAAAUGUAGUUGACGAUGAGGAGGUCUAUCGAAUUUUCGGCGGAUGCCUCCAAA [G37U U46C] | < 1e-05 s⁻¹ | < 1e-05 s⁻¹ | – | – | –
AUAAAAGCGCCAGAACUACAGAAAUGUAGUUGACGGGGAGGAGGUUUAUCGAAUUUUCGGCGGAUGCCUCAAAA [A36G C71A] | < 1e-05 s⁻¹ | – | < 1e-05 s⁻¹ | < 1e-05 s⁻¹ | < 1e-05 s⁻¹
AUAAAAGCGCCAGAACUACAGAAAUGUAGUGCACGAGUAGGAUGUUUAUCGAAUUUUCAGCGAAUGCCACCAAA [U31G G32C G38U G43U G59A G63A U69A] | < 1e-05 s⁻¹ | – | – | – | –
AUAAAAGGGCCAGAACUACAGAAAUGUAGUUGACGAGGAGGAGGUUUAUCGAAUUUUCGGCUGAUGCCUCCAAA [C8G G62U] | < 1e-05 s⁻¹ | – | < 1e-05 s⁻¹ | < 1e-05 s⁻¹ | < 1e-05 s⁻¹
AUAAAAGCGCCAGAACUACAGAAAUGUAGUUGACGAGGAGGAGGUUUAUCGAAUUUUCGGCGGUUGCCUCAAAA [A64U C71A] | < 1e-05 s⁻¹ | 3.22e-05 ± 1.4e-05 s⁻¹ | – | – | –
AUAAAAGGGCCAGAACUACAGAAAUGUAGUUGACGAGGAGGAGGUUUAUCGAAUUUUCGGCGGAGGCAUCCAAA [C8G U65G C68A] | < 1e-05 s⁻¹ | – | – | – | < 1e-05 s⁻¹
AUAAAGGCGCCAGAACUACAGAAAUGUAGUUGACGAGGAGGAGGUUUUUCGAAUUUUCGGCGGAUGCCUCCAAA [A6G A48U] | < 1e-05 s⁻¹ | < 1e-05 s⁻¹ | < 1e-05 s⁻¹ | < 1e-05 s⁻¹ | < 1e-05 s⁻¹
AUAAAAGCGCCAGCACUACAGAAAUGUAGUUGACGAGGAGGAGGUUUAUGGAAUUUUCGGCGGGUGCCUCCAAA [A14C C50G A64G] | 4.29e-05 ± 2.1e-05 s⁻¹ | – | – | – | –
AUAAAAGCGCCAGAACUACAGAAAUGUAGUUGACGAGGAGGAGGUUUAUCGAAUUUUCGGCGUAUGGCUCCAAA [G63U C67G] | < 1e-05 s⁻¹ | < 1e-05 s⁻¹ | < 1e-05 s⁻¹ | – | –
AUAAAAGCGCCAGAACUACAGAAAUGUAGUUGCCGAGGGGCAGGUUUAUCGACUUUUCGGCGGAUGCCUCCAAA [A33C A39G G41C A53C] | < 1e-05 s⁻¹ | < 1e-05 s⁻¹ | < 1e-05 s⁻¹ | < 1e-05 s⁻¹ | < 1e-05 s⁻¹
